Common to all, as to test: cryo-EM structure
In assay [1] the target is dephosphorylated CFTR of the P-ATP + AMP-PNP sample (human) (UniProt P13569).
Assay [2] has as its target recombinant human CFTR (cystic fibrosis transmembrane conductance regulator), wild type, dephosphorylated (human) (UniProt P13569).
The target of assay [3] is fully-phosphorylated CFTR carrying the ATP-hydrolysis-disrupting E1371Q mutation (human) (UniProt P13569).

On to “protein kinase A catalytic subunit purified from bovine heart (from UniProt P00517 1-351) (enzyme)”, for which the values for the stoichiometry N (PKA-C per CFTR) in assay [1], in assay [2] and in assay [3] were 1, 2 and 1, respectively.

For the origin of these results see paper doi:10.1101/2024.05.28.596263.
